This note sets out measurements from the supplement of paper PMC9112550, “Optimization of the antimicrobial peptide Bac7 by deep mutational scanning” (BMC Biology, 2022).

For this data set, the system named is Escherichia coli TOP10. Nature of the data set: shrunken log2 fold change of peptide-encoding DNA abundance (4.5 h post-induction vs induction); higher = less antimicrobial activity (less host growth inhibition). The note with it: time post-induction: 4.5 h; library: site-saturation at positions 5, 18, 19, 20.
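Further: peptides expressed intracellularly from a pBAD plasmid library in pooled LB shake-flask culture, induced with 0.3% L-arabinose, DNA abundance read by NGS, three biological replicates, DESeq2 with apeglm shrinkage.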

Regarding RRIRNRPPRLPRPRPRPCIIPRP, the “shrunken log2 fold change” value was -0.0176.

As for RRIRARPPRLPRPRPRPMHKPRP, the “shrunken log2 fold change” value worked out at 0.221.

RRIRCRPPRLPRPRPRPGNEPRP: the “shrunken log2 fold change” value was -0.154.

In the case of RRIRGRPPRLPRPRPRPNDVPRP, the “shrunken log2 fold change” value was -0.208.

Turning to RRIRQRPPRLPRPRPRPYNHPRP, the “shrunken log2 fold change” value was -0.047.

For the sequence RRIRMRPPRLPRPRPRPIEVPRP, the “shrunken log2 fold change” value is -0.00822.

On to RRIRPRPPRLPRPRPRPDFMPRP, for which the “shrunken log2 fold change” value is -0.309.

RRIRLRPPRLPRPRPRPCTIPRP: the “shrunken log2 fold change” value was -0.298.

Take RRIRCRPPRLPRPRPRPIHFPRP: the “shrunken log2 fold change” value is -0.368.

Regarding RRIRHRPPRLPRPRPRPWYEPRP, the “shrunken log2 fold change” value was -1.06.

For the sequence RRIRVRPPRLPRPRPRPEWVPRP, the “shrunken log2 fold change” value is 0.23.

Consider RRIRTRPPRLPRPRPRPFWDPRP, for which the “shrunken log2 fold change” value is 0.126.

As to RRIRQRPPRLPRPRPRPRIYPRP, the “shrunken log2 fold change” value was -0.159.

As to RRIRGRPPRLPRPRPRPNMLPRP, the “shrunken log2 fold change” value was 0.374.

In the case of RRIRQRPPRLPRPRPRPTIVPRP, the “shrunken log2 fold change” value is -0.119.

For the sequence RRIRERPPRLPRPRPRPVMWPRP, the “shrunken log2 fold change” value turned out to be 0.0878.

In the case of RRIRNRPPRLPRPRPRPNFPPRP, the “shrunken log2 fold change” value is -0.0305.

For RRIRHRPPRLPRPRPRPNALPRP, the “shrunken log2 fold change” value amounted to 0.0224.

With RRIRSRPPRLPRPRPRPFTNPRP, the “shrunken log2 fold change” value was -0.0617.

With RRIRTRPPRLPRPRPRPPKGPRP, the “shrunken log2 fold change” value is 0.107.

With RRIRPRPPRLPRPRPRPLICPRP, the “shrunken log2 fold change” value is -0.164.

In the case of RRIRARPPRLPRPRPRPLFPPRP, the “shrunken log2 fold change” value stood at 0.148.

On to RRIRWRPPRLPRPRPRPHPHPRP, for which the “shrunken log2 fold change” value is -0.0616.

As for RRIRLRPPRLPRPRPRPLHNPRP, the “shrunken log2 fold change” value was -0.0106.

Take RRIRKRPPRLPRPRPRPIFFPRP: the “shrunken log2 fold change” value was found to be 0.414.

As for RRIRSRPPRLPRPRPRPALIPRP, the “shrunken log2 fold change” value stood at 0.0414.

Regarding RRIRIRPPRLPRPRPRPYLTPRP, the “shrunken log2 fold change” value was -1.45.

Turning to RRIRWRPPRLPRPRPRPQWQPRP, the “shrunken log2 fold change” value stood at 0.0209.

Take RRIRERPPRLPRPRPRPGARPRP: the “shrunken log2 fold change” value was 0.255.

With RRIRIRPPRLPRPRPRPVDMPRP, the “shrunken log2 fold change” value was -0.51.

On to RRIRDRPPRLPRPRPRPSFDPRP, for which the “shrunken log2 fold change” value is -0.0842.

For the sequence RRIRGRPPRLPRPRPRPFIMPRP, the “shrunken log2 fold change” value was -0.285.

On to RRIRFRPPRLPRPRPRPFWEPRP, for which the “shrunken log2 fold change” value is -0.193.

With RRIRARPPRLPRPRPRPQENPRP, the “shrunken log2 fold change” value was 0.394.

Regarding RRIRGRPPRLPRPRPRPSYIPRP, the “shrunken log2 fold change” value is -0.458.

As to RRIRIRPPRLPRPRPRPGNRPRP, the “shrunken log2 fold change” value was -0.0134.

As to RRIRTRPPRLPRPRPRPDKMPRP, the “shrunken log2 fold change” value was -0.392.

For RRIRPRPPRLPRPRPRPWIQPRP, the “shrunken log2 fold change” value stood at 0.0178.

Regarding RRIRDRPPRLPRPRPRPKCGPRP, the “shrunken log2 fold change” value is 0.00846.

In the case of RRIRRRPPRLPRPRPRPGNVPRP, the “shrunken log2 fold change” value came to 0.418.

In the case of RRIRTRPPRLPRPRPRPYIYPRP, the “shrunken log2 fold change” value is -0.706.

On to RRIRERPPRLPRPRPRPDLLPRP, for which the “shrunken log2 fold change” value was -0.183.

Consider RRIRARPPRLPRPRPRPWYNPRP, for which the “shrunken log2 fold change” value is -0.305.

As for RRIRERPPRLPRPRPRPMDTPRP, the “shrunken log2 fold change” value is -0.501.

Consider RRIRLRPPRLPRPRPRPQHMPRP, for which the “shrunken log2 fold change” value is -0.767.

For the sequence RRIRKRPPRLPRPRPRPIKQPRP, the “shrunken log2 fold change” value is -0.089.

With RRIRGRPPRLPRPRPRPTCDPRP, the “shrunken log2 fold change” value worked out at 0.432.

On to RRIRHRPPRLPRPRPRPSNHPRP, for which the “shrunken log2 fold change” value is -0.461.

As to RRIRQRPPRLPRPRPRPDNWPRP, the “shrunken log2 fold change” value was -0.117.

In the case of RRIRDRPPRLPRPRPRPNDAPRP, the “shrunken log2 fold change” value is 0.0621.

For RRIRHRPPRLPRPRPRPYWEPRP, the “shrunken log2 fold change” value is -0.238.

With RRIRARPPRLPRPRPRPFTYPRP, the “shrunken log2 fold change” value was -0.0975.

Turning to RRIRVRPPRLPRPRPRPHSQPRP, the “shrunken log2 fold change” value was found to be 0.288.

Take RRIRGRPPRLPRPRPRPSALPRP: the “shrunken log2 fold change” value stood at 1.38.

As for RRIRYRPPRLPRPRPRPSDTPRP, the “shrunken log2 fold change” value was -1.27.

Take RRIRYRPPRLPRPRPRPQSVPRP: the “shrunken log2 fold change” value is -0.11.

For RRIRNRPPRLPRPRPRPPYPPRP, the “shrunken log2 fold change” value is -0.0162.

Regarding RRIRGRPPRLPRPRPRPNGRPRP, the “shrunken log2 fold change” value stood at 0.419.

On to RRIRARPPRLPRPRPRPLREPRP, for which the “shrunken log2 fold change” value was determined as 1.16.

On to RRIRMRPPRLPRPRPRPCKWPRP, for which the “shrunken log2 fold change” value was 0.0169.

As to RRIRIRPPRLPRPRPRPWDGPRP, the “shrunken log2 fold change” value is -0.094.

With RRIRPRPPRLPRPRPRPFGNPRP, the “shrunken log2 fold change” value is -0.146.

For the sequence RRIRKRPPRLPRPRPRPGIMPRP, the “shrunken log2 fold change” value was -0.206.

For the sequence RRIRWRPPRLPRPRPRPQWTPRP, the “shrunken log2 fold change” value was 0.787.

For RRIRGRPPRLPRPRPRPTVTPRP, the “shrunken log2 fold change” value was found to be 1.34.

As to RRIRDRPPRLPRPRPRPILSPRP, the “shrunken log2 fold change” value is -0.216.

Turning to RRIRLRPPRLPRPRPRPYNFPRP, the “shrunken log2 fold change” value was -0.0404.

Consider RRIRTRPPRLPRPRPRPKGGPRP, for which the “shrunken log2 fold change” value is 0.279.

RRIRRRPPRLPRPRPRPEVRPRP: the “shrunken log2 fold change” value came to 0.176.

On to RRIRSRPPRLPRPRPRPIHNPRP, for which the “shrunken log2 fold change” value was -0.415.

For the sequence RRIRYRPPRLPRPRPRPSETPRP, the “shrunken log2 fold change” value is -0.523.

With RRIRGRPPRLPRPRPRPNIIPRP, the “shrunken log2 fold change” value was 0.0628.

Regarding RRIRYRPPRLPRPRPRPNTFPRP, the “shrunken log2 fold change” value was -1.24.

For RRIRGRPPRLPRPRPRPKSCPRP, the “shrunken log2 fold change” value is 0.959.

On to RRIRIRPPRLPRPRPRPIPLPRP, for which the “shrunken log2 fold change” value amounted to 3.4.

Take RRIRDRPPRLPRPRPRPHLSPRP: the “shrunken log2 fold change” value worked out at 0.0479.

For RRIRVRPPRLPRPRPRPVKEPRP, the “shrunken log2 fold change” value was found to be 0.629.

In the case of RRIRNRPPRLPRPRPRPMNSPRP, the “shrunken log2 fold change” value was -0.148.

Take RRIRCRPPRLPRPRPRPRLDPRP: the “shrunken log2 fold change” value was determined as 0.154.

As for RRIRNRPPRLPRPRPRPKARPRP, the “shrunken log2 fold change” value is -0.00166.

Take RRIRGRPPRLPRPRPRPPKMPRP: the “shrunken log2 fold change” value turned out to be 0.348.

Turning to RRIRDRPPRLPRPRPRPQIMPRP, the “shrunken log2 fold change” value is 0.0478.

RRIRARPPRLPRPRPRPTENPRP: the “shrunken log2 fold change” value stood at 0.381.

For the sequence RRIRPRPPRLPRPRPRPPWDPRP, the “shrunken log2 fold change” value was 0.312.

For the sequence RRIRVRPPRLPRPRPRPVFSPRP, the “shrunken log2 fold change” value is -0.176.

Turning to RRIRQRPPRLPRPRPRPRPYPRP, the “shrunken log2 fold change” value is -0.357.

Consider RRIRPRPPRLPRPRPRPGPSPRP, for which the “shrunken log2 fold change” value was determined as 0.0312.

Consider RRIRDRPPRLPRPRPRPYELPRP, for which the “shrunken log2 fold change” value is -0.118.

As for RRIRIRPPRLPRPRPRPGRAPRP, the “shrunken log2 fold change” value turned out to be 0.431.

In the case of RRIRGRPPRLPRPRPRPWWAPRP, the “shrunken log2 fold change” value was 0.193.

For RRIRQRPPRLPRPRPRPWIVPRP, the “shrunken log2 fold change” value is -0.0927.

For RRIRTRPPRLPRPRPRPKYPPRP, the “shrunken log2 fold change” value is -0.252.

On to RRIRSRPPRLPRPRPRPPHQPRP, for which the “shrunken log2 fold change” value amounted to 0.27.

For the sequence RRIRPRPPRLPRPRPRPPARPRP, the “shrunken log2 fold change” value turned out to be 0.748.

Regarding RRIRWRPPRLPRPRPRPKHDPRP, the “shrunken log2 fold change” value came to 0.0868.

For the sequence RRIRTRPPRLPRPRPRPYPEPRP, the “shrunken log2 fold change” value is -0.817.

RRIRRRPPRLPRPRPRPNCHPRP: the “shrunken log2 fold change” value is -0.0432.

RRIRCRPPRLPRPRPRPHCKPRP: the “shrunken log2 fold change” value is -0.348.

For RRIRQRPPRLPRPRPRPFNDPRP, the “shrunken log2 fold change” value worked out at 0.0753.

In the case of RRIRERPPRLPRPRPRPESMPRP, the “shrunken log2 fold change” value is -0.46.

RRIRQRPPRLPRPRPRPPLMPRP: the “shrunken log2 fold change” value came out at 0.179.

RRIRDRPPRLPRPRPRPTWDPRP: the “shrunken log2 fold change” value turned out to be 0.629.

In the case of RRIRERPPRLPRPRPRPGQRPRP, the “shrunken log2 fold change” value was -0.0192.

On to RRIRMRPPRLPRPRPRPHEMPRP, for which the “shrunken log2 fold change” value is 0.0891.

For RRIRSRPPRLPRPRPRPLRAPRP, the “shrunken log2 fold change” value was found to be 0.858.

In the case of RRIRHRPPRLPRPRPRPFMAPRP, the “shrunken log2 fold change” value is -0.548.

Turning to RRIRPRPPRLPRPRPRPHISPRP, the “shrunken log2 fold change” value is -0.422.

For RRIRMRPPRLPRPRPRPMKQPRP, the “shrunken log2 fold change” value came to 0.0424.

On to RRIRKRPPRLPRPRPRPHTRPRP, for which the “shrunken log2 fold change” value came to 0.29.

In the case of RRIRWRPPRLPRPRPRPGWYPRP, the “shrunken log2 fold change” value was -0.0191.

Consider RRIRSRPPRLPRPRPRPYVMPRP, for which the “shrunken log2 fold change” value was -0.653.

On to RRIRIRPPRLPRPRPRPYAGPRP, for which the “shrunken log2 fold change” value is -0.417.

For RRIRERPPRLPRPRPRPVTCPRP, the “shrunken log2 fold change” value is -0.204.

As for RRIRSRPPRLPRPRPRPNNSPRP, the “shrunken log2 fold change” value was -0.724.

As to RRIRSRPPRLPRPRPRPKSKPRP, the “shrunken log2 fold change” value was -0.0869.

As for RRIRTRPPRLPRPRPRPRPMPRP, the “shrunken log2 fold change” value was 0.184.

RRIRARPPRLPRPRPRPDNGPRP: the “shrunken log2 fold change” value was -0.19.

Regarding RRIRRRPPRLPRPRPRPCERPRP, the “shrunken log2 fold change” value is 0.137.

As for RRIRKRPPRLPRPRPRPICKPRP, the “shrunken log2 fold change” value was 0.363.

Consider RRIRMRPPRLPRPRPRPSMYPRP, for which the “shrunken log2 fold change” value stood at 0.081.

Consider RRIRWRPPRLPRPRPRPYFMPRP, for which the “shrunken log2 fold change” value was -0.834.

As for RRIRWRPPRLPRPRPRPSASPRP, the “shrunken log2 fold change” value stood at 0.363.

Turning to RRIRMRPPRLPRPRPRPDVMPRP, the “shrunken log2 fold change” value was 0.147.

For the sequence RRIRGRPPRLPRPRPRPTDTPRP, the “shrunken log2 fold change” value amounted to 0.656.

With RRIRCRPPRLPRPRPRPWGPPRP, the “shrunken log2 fold change” value is -0.299.
